Assay [1] addresses T1, human CD39 endogenously expressed on Ramos human lymphoma cells (human, UniProt P49961 1-510).
T1 sequence: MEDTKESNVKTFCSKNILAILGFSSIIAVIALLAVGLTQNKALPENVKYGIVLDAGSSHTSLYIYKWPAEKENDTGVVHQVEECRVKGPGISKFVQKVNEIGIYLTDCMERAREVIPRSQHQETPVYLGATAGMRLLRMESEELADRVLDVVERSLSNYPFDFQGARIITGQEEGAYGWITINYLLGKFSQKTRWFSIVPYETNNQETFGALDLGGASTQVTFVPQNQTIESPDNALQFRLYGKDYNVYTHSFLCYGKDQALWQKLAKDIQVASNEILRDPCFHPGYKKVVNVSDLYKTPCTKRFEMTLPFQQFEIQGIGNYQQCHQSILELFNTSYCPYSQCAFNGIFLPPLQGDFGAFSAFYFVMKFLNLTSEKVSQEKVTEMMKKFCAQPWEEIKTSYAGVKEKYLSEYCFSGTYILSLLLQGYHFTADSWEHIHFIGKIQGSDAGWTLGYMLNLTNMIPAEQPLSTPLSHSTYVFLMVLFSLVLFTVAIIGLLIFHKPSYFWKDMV
Nature of the assay: cell-based or functional assay.

The target in another assay is T2, Human CD39-L2 (human, UniProt O75354 61-484, limits assumed).
T2 construct: Recombinant protein coated on ELISA plates; also called NTPDase6; ENTPD6
T2 sequence: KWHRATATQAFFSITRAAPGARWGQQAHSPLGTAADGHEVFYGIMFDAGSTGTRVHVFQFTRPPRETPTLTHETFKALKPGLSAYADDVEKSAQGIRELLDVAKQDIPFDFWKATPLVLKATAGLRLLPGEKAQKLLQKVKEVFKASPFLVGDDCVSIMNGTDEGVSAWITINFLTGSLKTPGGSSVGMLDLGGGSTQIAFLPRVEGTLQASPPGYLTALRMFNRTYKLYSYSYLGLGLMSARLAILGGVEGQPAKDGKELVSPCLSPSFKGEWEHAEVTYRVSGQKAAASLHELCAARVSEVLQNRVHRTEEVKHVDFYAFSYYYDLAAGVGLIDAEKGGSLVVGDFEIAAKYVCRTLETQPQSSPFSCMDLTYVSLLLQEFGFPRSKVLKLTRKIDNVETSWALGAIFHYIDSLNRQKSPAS
In words: ELISA, recombinant isoform coated, dose range of antibody. The protocol:
(§1) Antibodies were tested for binding to recombinant human CD39 isoforms (Rec-huCD39 isoforms). The CD39 isoforms having amino acid sequences shown in the table below were coated in 96-well plate in PBS 1× at 500 ng/ml or 1 μg/ml at 4° C. overnight. Wells were washed in TBS Tween 20, and further saturated 2H at RT in TBS Blocking buffer (Thermo Fisher Scientific Inc.). Dose range concentration of primary antibody was incubated in TBS blocking buffer for 2 h at RT. Wells were washed in TBS Tween 20. […] Optical density was measured on Enspire at OD=450.

For a further assay, the target named is T3, Human CD39-L3 (human, UniProt O75355 44-485, limits assumed).
T3 construct: Recombinant protein coated on ELISA plates; also called NTPDase3; ENTPD3
T3 sequence: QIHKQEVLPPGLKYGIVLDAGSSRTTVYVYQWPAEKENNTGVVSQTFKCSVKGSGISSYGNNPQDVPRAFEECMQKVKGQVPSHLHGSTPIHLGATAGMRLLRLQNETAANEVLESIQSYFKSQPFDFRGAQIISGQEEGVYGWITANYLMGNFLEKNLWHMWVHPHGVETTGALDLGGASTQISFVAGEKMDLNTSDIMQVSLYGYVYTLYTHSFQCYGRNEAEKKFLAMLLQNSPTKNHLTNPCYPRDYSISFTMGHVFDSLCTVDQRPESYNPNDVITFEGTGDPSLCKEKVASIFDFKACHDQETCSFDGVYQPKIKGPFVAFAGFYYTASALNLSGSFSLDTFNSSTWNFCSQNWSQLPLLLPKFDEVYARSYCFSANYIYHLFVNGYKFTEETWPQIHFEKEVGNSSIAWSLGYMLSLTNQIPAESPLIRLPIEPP
Described as above. The protocol:
as §1

For another assay, the target named is T4, Human CD39-L4 (human, UniProt O75356 25-428).
T4 construct: Recombinant protein coated on ELISA plates; also called NTPDase5; ENTPD5
T4 sequence: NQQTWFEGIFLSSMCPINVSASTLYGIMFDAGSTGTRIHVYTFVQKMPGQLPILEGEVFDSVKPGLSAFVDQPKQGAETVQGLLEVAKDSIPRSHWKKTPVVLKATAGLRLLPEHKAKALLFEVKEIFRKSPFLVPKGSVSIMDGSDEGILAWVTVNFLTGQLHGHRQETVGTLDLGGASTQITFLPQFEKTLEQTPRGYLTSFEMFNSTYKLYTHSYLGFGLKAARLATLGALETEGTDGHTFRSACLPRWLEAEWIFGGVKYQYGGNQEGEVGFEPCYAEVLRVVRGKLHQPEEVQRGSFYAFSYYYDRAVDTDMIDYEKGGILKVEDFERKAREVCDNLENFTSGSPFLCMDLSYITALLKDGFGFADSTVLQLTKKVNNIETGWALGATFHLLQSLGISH
The description is as above. The protocol:
as §1

B1: mAb3 (antibody, human IgG1, V domains shown)
VH: QVQLVQSGSELKKPGASVKVSCKASGYTFTHYGMNWVRQAPGKGLKWMGWINTYTGEPTYADDFKGRFVFSLDTSVSTAYLQISSLKAEDTAVYYCARRRYEGNYVFYYFDYWGQGTTVTVSS
VL: DIQMTQSPSSLSASVGDRVTITCRASENIYSYFSWYQQKPGKAPKLLIYTAKTLAEGVPSRFSGSGSGTDFTLTISSLQPEDFATYYCQHHYVTPYTFGGGTKVEIK
notes: Produced as Fc silent recombinant human IgG1 with heavy chain N297Q (Kabat EU numbering) and huCk constant domain; also called anti-CD39 antibody mAb3
For the molecule B1, the “inhibition of CD39 enzymatic activity (AMP generated by Ramos cells, Maldi TOF)” value (shortened to “inhibition of CD39 enzymatic activity”) in assay [1] is at least 90%. For the same molecule, the binding result with Human CD39-L2, with Human CD39-L3 and in the assay with Human CD39-L4 was “no binding” throughout.

B2: mAb5 (antibody, human IgG1, V domains shown)
VH: QVQLVQSGSELKKPGASVKVSCKASGYTFTHYGMNWVRQAPGQGLKWMGWINTYTGEPTYADDFKGRFVFSLDTSVSTAYLQISSLKAEDTAVYYCARRRYEGNYVFYYFDYWGQGTTVTVSS
VL: DIQMTQSPSSLSASVGDRVTITCRASENIYSYFSWYQQKPGKAPKLLVYTAKTLAEGVPSRFSGSGSGTDFTLTISSLQPEDFATYYCQHHYVTPYTFGGGTKVEIK
notes: Produced as Fc silent recombinant human IgG1 with heavy chain N297Q (Kabat EU numbering) and huCk constant domain; also called anti-CD39 antibody mAb5
Consider B2, for which the “inhibition of CD39 enzymatic activity” value in assay [1] was at least 90%. For the same molecule, the binding result with Human CD39-L2, in the assay with Human CD39-L3 and with Human CD39-L4 was “no binding” throughout.

B3: mAb1 (antibody, human IgG1, V domains shown)
VH: QVQLVQSGSELKKPGASVKVSCKASGYTFTHYGMNWVRQAPGQGLEWMGWINTYTGEPTYADDFKGRFVFSLDTSVSTAYLQISSLKAEDTAVYYCARRRYEGNYVFYYFDYWGQGTTVTVSS
VL: DIQMTQSPSSLSASVGDRVTITCRASENIYSYFSWYQQKPGKAPKLLIYTAKTLAEGVPSRFSGSGSGTDFTLTISSLQPEDFATYYCQHHYVTPYTFGGGTKVEIK
notes: Produced as Fc silent recombinant human IgG1 with heavy chain N297Q (Kabat EU numbering) and huCk constant domain; also called anti-CD39 antibody mAb1
As to B3, the “inhibition of CD39 enzymatic activity” value in assay [1] is at least 90%. Moreover, the binding result in the assay with Human CD39-L2, in the assay with Human CD39-L3 and with Human CD39-L4 was “no binding” throughout.

B4: mAb2 (antibody, human IgG1, V domains shown)
VH: QVQLVQSGSELKKPGASVKVSCKASGYTFTHYGMNWVRQAPGQGLKWMGWINTYTGEPTYADDFKGRFVFSLDTSVSTAYLQISSLKAEDTAVYYCARRRYEGNYVFYYFDYWGQGTTVTVSS
VL: DIQMTQSPSSLSASVGDRVTITCRASENIYSYFSWYQQKPGKAPKLLIYTAKTLAEGVPSRFSGSGSGTDFTLTISSLQPEDFATYYCQHHYVTPYTFGGGTKVEIK
notes: Produced as Fc silent recombinant human IgG1 with heavy chain N297Q (Kabat EU numbering) and huCk constant domain; also called anti-CD39 antibody mAb2
Take B4: in assay [1], the “inhibition of CD39 enzymatic activity” value was at least 90%. For the same molecule, the binding result in the assay with Human CD39-L2, in the assay with Human CD39-L3 and with Human CD39-L4 was “no binding” in each case.

B5: mAb4 (antibody, human IgG1, V domains shown)
VH: QIQLVQSGSELKKPGASVKVSCKASGYTFTHYGMNWVRQAPGKGLKWMGWINTYTGEPTYADDFKGRFVFSLDASVSTAYLQISSLKAEDTAVYYCARRRYEGNYVFYYFDYWGQGTTVTVSS
VL: DIQMTQSPSSLSASVGDRVTITCRASENIYSYFSWYQQKPGKAPKLLIYTAKTLAEGVPSRFSGSGSGTDFTLTISSLQPEDFATYYCQHHYVTPYTFGGGTKVEIK
notes: Produced as Fc silent recombinant human IgG1 with heavy chain N297Q (Kabat EU numbering) and huCk constant domain; also called anti-CD39 antibody mAb4
For the molecule B5, the “inhibition of CD39 enzymatic activity” value in assay [1] is at least 90%. Also, the binding result in the assay with Human CD39-L2, with Human CD39-L3 and in the assay with Human CD39-L4 was “no binding” throughout.

B6: mAb7 (antibody, human IgG1, V domains shown)
VH: QIQLVQSGSELKKPGASVKVSCKASGYTFTHYGMNWVRQAPGKGLKWMGWINTYTGEPTYADDFKGRFVFSLDASVSTAYLQISSLKAEDTAVYYCARRRYEGNYVFYYFDYWGQGTTVTVSS
VL: DIQMTQSPSSLSASVGDRVTITCRASENIYSYFSWYQQKPGKAPKLLVYTAKTLAEGVPSRFSGSGSGTDFTLTISSLQPEDFATYYCQHHYVTPYTFGGGTKVEIK
notes: Produced as Fc silent recombinant human IgG1 with heavy chain N297Q (Kabat EU numbering) and huCk constant domain; also called anti-CD39 antibody mAb7
Take B6: in assay [1], the “inhibition of CD39 enzymatic activity” value was at least 90%. Moreover, the binding result with Human CD39-L2, with Human CD39-L3 and with Human CD39-L4 was “no binding” each time.

B7: mAb6 (antibody, human IgG1, V domains shown)
VH: QVQLVQSGSELKKPGASVKVSCKASGYTFTHYGMNWVRQAPGKGLKWMGWINTYTGEPTYADDFKGRFVFSLDTSVSTAYLQISSLKAEDTAVYYCARRRYEGNYVFYYFDYWGQGTTVTVSS
VL: DIQMTQSPSSLSASVGDRVTITCRASENIYSYFSWYQQKPGKAPKLLVYTAKTLAEGVPSRFSGSGSGTDFTLTISSLQPEDFATYYCQHHYVTPYTFGGGTKVEIK
notes: Produced as Fc silent recombinant human IgG1 with heavy chain N297Q (Kabat EU numbering) and huCk constant domain; also called anti-CD39 antibody mAb6
B7: in assay [1], the “inhibition of CD39 enzymatic activity” value was at least 90%. Also, the binding result with Human CD39-L2, with Human CD39-L3 and with Human CD39-L4 was “no binding” in each case.

(Values after US20190071514A1, “ANTI-CD39 ANTIBODIES” (INNATE PHARMA, priority 2016, published 2019).)
